This note sets out measurements from patent US8722052B2, “Vaccinia virus protein A46 peptide and use thereof” (priority 2008, dated 2014).

One series deals with T1, TLR2 (Mus musculus, UniProt Q9QUN7).
T1 construct: endogenous in cells
Put plainly: TLR2 response in murine cells. It counts as cell-based.

The next series concerns RAW264.7 cells. As to the kind of experiment: MTT cell viability assay, RAW264.7. It counts as cell-based, murine. The protocol:
FIGS. 5A and B are bar charts showing the dose-dependent inhibitory effect of A464R on LPS-induced TNFα in murine RAW264.7 cells. A464 (SEQ ID NO. 20) was added to the cells at a concentration of 5, 20 or 50 μM 1 hour before stimulating with 100 ng/ml LPS. Supernatant was collected 24 hours after stimulation and assayed for TNFα by ELISA (A) and cells were assayed for viability by the MTT assay (B.). No peptides were added to the control wells (black bars). Data is representative of at least three experiments each performed in triplicate and is expressed as mean±s.d;
FIGS. 10A and B are bar charts showing the effect of A464 on poly(I:C)-induced TNFα in murine RAW264.7 cells. Cells were seeded in 96 well plates (1.5×10^5 cells/nil) 24 hours before treatment. A464 (SEQ ID NO. 20) was added to the cells at a concentration of 5, 20 or 50 μM 1 hour before stimulating with 25 μg/ml Poly(I:C). […] Data is representative of at least three experiments each performed in triplicate and is expressed as mean±s.d;
Cell viability was measured by assessing mitochondrial function using an MTT (3-(4,5-Dimethylthiazol-2-yl)-2,5-diphenyltetrazolium bromide) assay. […] MTT was then removed and 200 μl per well of dimethyl sulphoxide (DMSO) was added and cells incubated for 20 min at 37° C. in the dark, prior to absorbance being read at 595 nm on a spectrophotometer.
(In general: Tetrazolium dyes change colour on reduction, which living cells bring about.)

A further series concerns the target T2, TLR9 (Mus musculus, UniProt Q9EQU3).
T2 construct: using the murine macrophage cell line RAW264.7; endogenous in cells; host or cells: RAW264.7
T2 sequence (Q9EQU3 26-1032): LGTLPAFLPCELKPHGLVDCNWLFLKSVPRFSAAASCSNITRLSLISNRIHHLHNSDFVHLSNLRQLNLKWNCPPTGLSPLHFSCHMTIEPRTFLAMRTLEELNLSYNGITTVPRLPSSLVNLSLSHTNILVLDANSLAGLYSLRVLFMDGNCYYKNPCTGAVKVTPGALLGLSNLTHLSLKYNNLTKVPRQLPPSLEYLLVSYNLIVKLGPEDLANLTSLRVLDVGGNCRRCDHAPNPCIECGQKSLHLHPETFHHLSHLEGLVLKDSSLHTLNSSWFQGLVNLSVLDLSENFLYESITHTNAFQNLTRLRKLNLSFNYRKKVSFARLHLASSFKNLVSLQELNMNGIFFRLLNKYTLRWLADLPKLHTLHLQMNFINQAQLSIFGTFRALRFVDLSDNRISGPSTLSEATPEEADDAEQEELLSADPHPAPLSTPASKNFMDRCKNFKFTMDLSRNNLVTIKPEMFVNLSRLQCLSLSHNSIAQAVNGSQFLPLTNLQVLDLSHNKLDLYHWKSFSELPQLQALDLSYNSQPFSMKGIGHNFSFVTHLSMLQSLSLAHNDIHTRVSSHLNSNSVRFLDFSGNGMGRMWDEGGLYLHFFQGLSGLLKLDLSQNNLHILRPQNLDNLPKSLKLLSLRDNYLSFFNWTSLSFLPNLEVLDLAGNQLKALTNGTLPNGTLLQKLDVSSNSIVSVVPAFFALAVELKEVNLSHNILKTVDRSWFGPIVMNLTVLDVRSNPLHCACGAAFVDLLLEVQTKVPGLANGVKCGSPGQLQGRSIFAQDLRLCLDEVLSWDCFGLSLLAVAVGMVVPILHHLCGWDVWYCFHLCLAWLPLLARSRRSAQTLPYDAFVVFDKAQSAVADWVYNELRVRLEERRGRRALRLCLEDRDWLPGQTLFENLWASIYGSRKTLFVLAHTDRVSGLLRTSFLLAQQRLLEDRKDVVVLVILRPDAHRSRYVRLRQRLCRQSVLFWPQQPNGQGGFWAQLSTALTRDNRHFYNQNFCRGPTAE
As to the kind of experiment: CpG-induced TNFα in RAW264.7 cells, ELISA. The note with it: peptide 5 or 20 μM 1 h before CpG, supernatant 24 h. It counts as cell-based, murine. The protocol: FIGS. 2A and B are bar charts showing the effect of peptides derived from A46 on CpG-induced TNFα in murine RAW264.7 cells. A46 peptides were added to the cells at a concentration of 5 or 20 μM 1 hour before stimulating with […] CpG. Supernatants were collected 24 hours after stimulation and assayed for TNFα by ELISA. No peptides were added into the control wells (black bars). (A) peptides A461-A467 (SEQ ID NO. 17 to 23). (B) peptides A468-A4614 (SEQ ID NO. 24 to 30) (excluding A4612 SEQ ID NO. 28). Data is representative of at least two experiments each performed in triplicate and is expressed as mean±s.d;
Cytokine and chemokine production from cells or mouse serum was measured by ELISA using Duoset kits from R&D systems, according to the manufacturer's instructions.
These peptides were initially screened for effects on TLR-induced gene induction in vitro using the murine macrophage cell line RAW264.7. Unmethylated CpG dinucleotides of bacterial DNA sequences are detected by TLR9, which leads to production of pro-inflammatory cytokines and chemokines, including TNFα via a MyD88-dependent pathway (Latz et al, 2004). […] The effect of the peptides on two TLR9-induced cytokines, namely TNFα and MIP-2, was measured by ELISA. TNFα is NFκB-dependent, and MIP-2 as well as NFκB also requires IRFs for transcriptional activation (De Filippo et al, 2008). […]
A general note: In an ELISA, binding on a coated surface is turned into a signal by an enzyme label.

T1 sequence (Q9QUN7 25-784): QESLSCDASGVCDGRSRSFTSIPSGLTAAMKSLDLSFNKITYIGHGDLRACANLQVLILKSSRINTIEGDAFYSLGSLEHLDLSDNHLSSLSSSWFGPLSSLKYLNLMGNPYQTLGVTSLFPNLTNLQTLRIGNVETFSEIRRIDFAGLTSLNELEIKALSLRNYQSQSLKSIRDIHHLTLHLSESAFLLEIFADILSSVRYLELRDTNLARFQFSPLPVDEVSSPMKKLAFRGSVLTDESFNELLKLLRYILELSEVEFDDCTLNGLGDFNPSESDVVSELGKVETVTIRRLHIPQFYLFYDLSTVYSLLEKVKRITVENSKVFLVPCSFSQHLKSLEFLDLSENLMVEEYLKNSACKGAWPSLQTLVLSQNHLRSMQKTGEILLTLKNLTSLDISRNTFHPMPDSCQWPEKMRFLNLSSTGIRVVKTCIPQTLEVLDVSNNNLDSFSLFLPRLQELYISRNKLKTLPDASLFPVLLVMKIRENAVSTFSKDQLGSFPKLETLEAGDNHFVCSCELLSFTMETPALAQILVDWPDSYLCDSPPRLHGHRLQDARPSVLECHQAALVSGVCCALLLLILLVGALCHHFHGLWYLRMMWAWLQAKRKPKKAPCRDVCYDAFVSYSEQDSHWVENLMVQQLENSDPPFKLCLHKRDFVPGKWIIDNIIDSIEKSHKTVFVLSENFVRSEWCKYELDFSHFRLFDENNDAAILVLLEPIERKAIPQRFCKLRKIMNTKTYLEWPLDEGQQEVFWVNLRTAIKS

On to KYSFKLILAEYRRRRRRRRR [Peptide A464], for which the “effect on TLR2 in murine cells” value with TLR2 is “unaffected”. Moreover, in the series with RAW264.7 cells (100 ng/ml LPS, 24 h), the “toxicity (MTT) in the presence of LPS” value is “no toxicity at the concentrations of 5 and 20 μM”. Further, the “toxicity (MTT) in the absence of LPS” value in the series with RAW264.7 cells (no LPS) was “some cytotoxicity at 20 μM”. In addition, the “inhibition of CpG-induced TNFα production” value with TLR9 is on record as “little or no effect”.
